Literature values in publication PMC7557795.
pKd: −log10 of the molar value.

Experiments:
IL-6R (Homo sapiens) = IL-6R (Homo sapiens) (UniProt P08887)
[1] = target: IL-6R/gp130 (Homo sapiens) (UniProt P08887)
Sequence of IL-6R/gp130 (Homo sapiens) (P08887 20-365, chain 1 of 2): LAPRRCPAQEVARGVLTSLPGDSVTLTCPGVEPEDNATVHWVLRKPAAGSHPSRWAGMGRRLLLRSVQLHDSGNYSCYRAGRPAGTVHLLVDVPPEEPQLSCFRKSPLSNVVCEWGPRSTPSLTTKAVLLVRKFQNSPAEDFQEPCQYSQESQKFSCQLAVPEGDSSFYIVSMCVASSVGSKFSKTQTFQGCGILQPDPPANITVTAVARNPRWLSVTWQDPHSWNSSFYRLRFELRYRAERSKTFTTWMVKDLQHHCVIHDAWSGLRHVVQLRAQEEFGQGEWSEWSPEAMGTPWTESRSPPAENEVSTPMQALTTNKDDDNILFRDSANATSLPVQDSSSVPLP
Sequence of IL-6R/gp130 (Homo sapiens) (partner, as listed by the source, chain 2 of 2): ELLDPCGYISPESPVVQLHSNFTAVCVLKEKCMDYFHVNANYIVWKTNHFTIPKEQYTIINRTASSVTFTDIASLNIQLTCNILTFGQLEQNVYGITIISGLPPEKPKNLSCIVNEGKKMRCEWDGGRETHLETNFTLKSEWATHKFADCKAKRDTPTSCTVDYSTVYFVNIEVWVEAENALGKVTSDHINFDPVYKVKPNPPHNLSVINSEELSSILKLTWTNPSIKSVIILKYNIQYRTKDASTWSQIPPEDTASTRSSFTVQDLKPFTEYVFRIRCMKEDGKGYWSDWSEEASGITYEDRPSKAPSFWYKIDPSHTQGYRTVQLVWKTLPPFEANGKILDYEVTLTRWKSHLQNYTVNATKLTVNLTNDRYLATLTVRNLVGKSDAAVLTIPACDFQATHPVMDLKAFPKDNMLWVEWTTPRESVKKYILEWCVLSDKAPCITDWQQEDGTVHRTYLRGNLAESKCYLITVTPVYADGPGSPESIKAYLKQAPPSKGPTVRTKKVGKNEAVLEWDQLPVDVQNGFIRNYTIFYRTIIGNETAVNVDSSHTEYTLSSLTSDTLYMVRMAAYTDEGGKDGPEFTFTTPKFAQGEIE

Sequence of IL-6 (P05231 30-212): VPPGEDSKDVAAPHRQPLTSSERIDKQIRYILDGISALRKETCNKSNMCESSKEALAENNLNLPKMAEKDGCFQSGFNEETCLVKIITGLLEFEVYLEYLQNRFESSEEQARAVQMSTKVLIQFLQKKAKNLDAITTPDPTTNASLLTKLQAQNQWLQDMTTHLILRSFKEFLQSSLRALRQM
Sequence of IL-6R (Homo sapiens) (P08887 20-355): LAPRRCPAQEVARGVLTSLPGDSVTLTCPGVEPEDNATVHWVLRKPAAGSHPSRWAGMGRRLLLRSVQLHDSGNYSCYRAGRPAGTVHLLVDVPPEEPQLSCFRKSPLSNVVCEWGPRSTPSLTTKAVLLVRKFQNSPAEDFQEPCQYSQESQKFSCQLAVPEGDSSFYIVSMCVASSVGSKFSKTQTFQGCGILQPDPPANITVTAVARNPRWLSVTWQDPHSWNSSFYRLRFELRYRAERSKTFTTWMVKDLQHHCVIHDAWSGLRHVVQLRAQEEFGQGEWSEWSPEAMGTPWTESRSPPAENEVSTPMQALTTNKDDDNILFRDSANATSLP

## IL-6 (from UniProt P05231)
IL-6R (Homo sapiens)
  pKd: 9.05
[1]
  pKd: 10.10
